Experimental data as given in publication PMC6880163 (Journal of Virology, 2019).
Substitutions are numbered along the chain they refer to. In names and notes the source's numbering stands.

B1: TagRFP/TRIM69 V95A L96A double mutant (natural protein, human, UniProt Q86WT6 1-500, looked up)
chain: MEVSTNPSSNIDPGDYVEMNDSITHLPSKVVIQDITMELHCPLCNDWFRDPLMLSCGHNFCEACIQDFWRLQAKETFCPECKMLCQYNNCTFNPAADKLVEKIKKLPLLKGHPQCPEHGENLKLFSKPDGKLICFQCKDARLSVGQSKEFLQISDAVHFFTEELAIQQGQLETTLKELQTLRNMQKEAIAAHKENKLHLQQHVSMEFLKLHQFLHSKEKDILTELREEGKALNEEMELNLSQLQEQCLLAKDMLVSIQAKTEQQNSFDFLKDITTLLHSLEQGMKVLATRELISRKLNLGQYKGPIQYMVWREMQDTLCPGLSPLTLDPKTAHPNLVLSKSQTSVWHGDIKKIMPDDPERFDSSVAVLGSRGFTSGKWYWEVEVAKKTKWTVGVVRESIIRKGSCPLTPEQGFWLLRLRNQTDLKALDLPSFSLTLTNNLDKVGIYLDYEGGQLSFYNAKTMTHIYTFSNTFMEKLYPYFCPCLNDGGENKEPLHILHPQ
notes: also called multimerization-defective mutant of TRIM69; not shown: TagRFP, N-terminal, kept
B2: TagRFP/TRIM69 L99A single mutant (natural protein, human, UniProt Q86WT6 1-500, looked up)
chain: B1 chain with A95V, A96L, L99A
notes: as for B1

Target: the molecule itself
Assay: cross-linking; intact doxycycline-induced HT1080 cells in 1x PBS treated with 0.2 mM EGS (membrane-permeable) for 30 min at room temperature, lysed in LDS sample buffer, Western blot with anti-RFP antibody

| Protein | stoichiometry N |
| --- | --- |
| B1 | 2 |
| B2 | 2 |
